Earlier results, collected in PMC8535836.

Biological target: Neuroplastin Np65 Ig1 (Rattus norvegicus) (UniProt P97546)
Assay: Surface Plasmon Resonance

Neuroplastin Np65 Ig1 (from UniProt P97546)
Kd: 520 nM
